According to US20220265819A1 (GEN2 NEUROSCIENCE, published 2022):
Where no end group is shown, it is not given here.

How the values were obtained:
[1] = target: T1, Bovine serum albumin (bovine, UniProt P02769 25-607); experiment: phage ELISA
T1 construct: Negative control antigen in ELISA; also called BSA
Procedure: (§1) 10.1 Phage ELISA: Supernatants prepared from bacterial cultures infected with phage displaying scFv were tested for binding to full length recombinant 2N4R tau (100 ng/well), target peptide (SEQ ID NO: 13) conjugated to BSA or transferrin (1 μg/well) or BSA (1% in TBS) using standard methods. Antigen was coated onto ELISA plates, then removed, and plates were blocked for 1 h with 5% dried milk in TBS. Samples were diluted 1:25 in 1% BSA/TBS then added to the ELISA plate for 1 h at room temperature (RT). Plates were then washed ×4 with TBS/0.1% Tween (TBST). Alpha-M13-HRP antibody (Abcam, Cambridge, UK) was added (1:5000 dilution in 5% milk/TBS) and incubated for 1 h at RT before washing ×4. TMB ELISA solution was added to each well for 10 min at RT, followed by 1 M sulphuric acid. OD was then measured at 450 nm.

[2] = target: T2, antigen peptide [C]-SPVVSGDTSPRHLSN-amide (tau 396-410 with N-terminal cysteine) (human); experiment: phage ELISA, phage supernatant 1:25, anti-M13-HRP, n=1
T2 construct: Not phosphorylated; Coated free, or conjugated through the N-terminal Cys to BSA or transferrin (phage ELISA); The N-terminal Cys is not part of tau; also called target peptide; short linear peptide
T2 peptide: CSPVVSGDTSPRHLSN-NH2
Source text: (§2) FIG. 7. A panel of phage display-derived anti-tau scFv bind to linear immunogen peptide and full length 2N4R tau in phage ELISA. Phage expressing scFv clones bind to the short linear peptide (SEQ ID NO: 13) (A) conjugated to BSA (black bars) or transferrin (white bars) and to full length recombinant 2N4R tau (B). […] Binding of phage was detected using an HRP-conjugated anti-alpha-M13 antibody and data shown are from a representative experiment (n=1).
as §1

[3] = target: T3, full length recombinant human 2N4R tau (amino acids 1-441) (human, UniProt P10636 1-758); experiment: phage ELISA, tau 100 ng/well, phage supernatant 1:25, anti-M13-HRP, n=1
T3 construct: Bought (rPeptide); recombinant, non-phosphorylated; also called recombinant tau
Source text: as §2, §1

[4] = target: T3, full length recombinant human 2N4R tau …; experiment: ELISA, HEK293F supernatant on coated tau
Procedure: (§3) Antigen was removed from wells and the plates were then blocked for 1 hour at RT with 5% dried milk in 1×TBS. Blocking solution was removed. HEK293F cell supernatant (10 μg/mL, to 0.0001 μg/mL in 1% BSA/1×TBS) was added to relevant wells, and plates were incubated for 1 hour at RT with gentle shaking. Plates were then washed four times with TBS/0.1% Tween (TBST). Anti-rabbit IgG-HRP antibody (Sigma. St Louis, Mo., USA), diluted 1:5000 in 5% milk/TBS, was added to each well and plates were incubated for 1 hour at RT with gentle shaking before being washed four times with TBST. 3,3′,5,5′-tetramethylbenzidine (TMB) ELISA solution was added to each well and plates were incubated for 15 mins at RT. An equal volume of 1 M sulfuric acid was added to each well and OD was measured at 450 nm.

[5] = target: T3, full length recombinant human 2N4R tau …; experiment: ELISA, purified IgG on coated tau, half maximal signal
Procedure: as §3, with “13.1 ELISA analyses: ELISA plates were coated with antigen (full length tau, 100 ng/well; or 1% BSA in 1×TBS) in 1× carbonate-bicarbonate buffer for 1 hour at 37° C. Antigen” for “Antigen”, “1×TBS (200 μl/well).” for “1×TBS.”, “removed, diluted IgG” for “removed. HEK293F cell supernatant”, “(Sigma,” for “(Sigma.”, “TBST. 25 μL” for “TBST.”, “RT, an” for “RT. An”
Data were plotted as log concentration of IgG against ELISA signal (OD) and EC₅₀ values were calculated using a four parameter logistic equation with variable slope using GraphPad Prism (GraphPad Software Inc, La Jolla, Calif., USA).

[6] = target: T1, Bovine serum albumin; experiment: ELISA on 1% BSA, HEK293F supernatant, anti-rabbit IgG-HRP, n=1
Procedure: FIG. 9. A panel of anti-tau IgG bind to linear immunogen peptide and full length recombinant 2N4R tau in ELISA format. […] Binding of anti-tau IgG was detected using an HRP-conjugated anti-rabbit secondary antibody and data shown are from a representative experiment (n=1).
as §3

T3 sequence (P10636 other isoform, or with tags, fused parts or gaps limits assumed): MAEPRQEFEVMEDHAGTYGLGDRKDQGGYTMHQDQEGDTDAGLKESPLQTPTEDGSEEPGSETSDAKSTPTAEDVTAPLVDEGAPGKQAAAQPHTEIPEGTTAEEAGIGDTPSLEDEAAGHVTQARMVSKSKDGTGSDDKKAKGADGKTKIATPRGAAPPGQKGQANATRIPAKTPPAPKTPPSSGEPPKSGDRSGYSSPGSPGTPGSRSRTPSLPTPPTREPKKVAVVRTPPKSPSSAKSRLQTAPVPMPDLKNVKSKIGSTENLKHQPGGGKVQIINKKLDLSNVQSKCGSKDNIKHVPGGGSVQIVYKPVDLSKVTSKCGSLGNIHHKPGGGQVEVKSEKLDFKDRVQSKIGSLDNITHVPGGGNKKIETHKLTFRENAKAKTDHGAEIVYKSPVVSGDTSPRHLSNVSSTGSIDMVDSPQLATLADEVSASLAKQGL
T1 sequence (P02769 25-607 limits assumed): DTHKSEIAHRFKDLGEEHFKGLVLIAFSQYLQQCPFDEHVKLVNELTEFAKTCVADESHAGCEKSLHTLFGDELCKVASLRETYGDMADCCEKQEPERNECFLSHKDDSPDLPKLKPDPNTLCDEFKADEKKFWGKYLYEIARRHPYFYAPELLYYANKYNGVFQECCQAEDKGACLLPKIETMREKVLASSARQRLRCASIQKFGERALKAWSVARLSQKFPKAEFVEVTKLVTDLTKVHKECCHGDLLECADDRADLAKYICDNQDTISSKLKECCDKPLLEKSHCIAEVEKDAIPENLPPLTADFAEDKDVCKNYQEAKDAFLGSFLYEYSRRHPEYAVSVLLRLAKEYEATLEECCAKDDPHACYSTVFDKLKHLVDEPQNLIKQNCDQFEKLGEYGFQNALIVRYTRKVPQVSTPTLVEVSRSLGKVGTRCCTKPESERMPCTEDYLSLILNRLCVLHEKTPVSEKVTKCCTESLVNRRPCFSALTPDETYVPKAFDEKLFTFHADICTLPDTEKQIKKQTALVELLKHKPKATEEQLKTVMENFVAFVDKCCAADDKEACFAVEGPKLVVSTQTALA

B1: Clone 13 human scFv (phage displayed) (scFv, V domains shown)
VH: ESGGGVVKPGGSLRLACEASGFTFNKYAMSWVRQAPGKGLEWVSGNSGSGNSTYYADSVKGRFTISRDNSKNILYLDMNNLRAEDTALYYCAKTRGAGRRKPYGMDVWGHGTTVTVSS
VL: VMTQSPSTLSLSPGERATLSCRASQSVANNYLAWYQHKPGQAPRVLIYGASSRATGIPDRFSGSGSGTDFTLTISRLEPEDFAVYYCQQYGSSPRTFGGGTKLEIK
notes: also called rx9; D12
binding result [1]: no binding (tested: 1:25 phage supernatant)

B2: Clone 9 human scFv (phage displayed) (scFv, V domains shown)
VH: VQLVESGGGFVQPGGSLRLSCAASGFTFTDYGIHWVRQAPGKGLEWVAVISHDGSHKYYSDSVKGRSTISRDSSDNTVSLQLDGLRADDTALYYCAKDLPQTGALDFWGRGTLITVSS
VL: MTQSPSSLSASVGDRVTITCQASQDISNYLNWYQQKPGKAPKLLIYDASNLETGVPSRFSGSGSGTDFTFTISSLQPEDFATYYCQQANSFPITFGQGTRLEIK
notes: also called rx2; E5
binding result [1]: no binding (tested: 1:25 phage supernatant)
binding result [2]: binds
binding result [3]: binds

B3: Clone 1 rabbit monoclonal IgG (antibody, V domains shown)
VH: QSLEESGGGLVKPGGTLTLTCTVSGFSLNNYDMSWVRQAPGKGLEWIGTVSTTYRRYYASWAKGRFTISKTSSTTVDLKMTSLTTEDTATYFCAASGIWGPGTLVTVSL
VL: AQVLTQTTSPVSAAVGGTVTINCQSSQRVYSNYLAWYQQKPGQPPKRLIFLASTLESGVPSRFSGSGSGTQFTLTISDLECDDAATYYCAGTYTGSIWAFGGGTEVVVKG
notes: Rabbit IgG expressed in HEK293F (pRab293); also called P1-D4; #28
OD (ELISA) [4]: 0.3 OD
EC50 [5]: 0.73 nM
binding result [6]: no binding (tested: supernatant 1:50)

B4: Clone 11 human scFv (phage displayed) (scFv, V domains shown)
VH: QVQLQQWGGGLVKPSETLSLTCGVSGGSFNDYYWTWIRQPQGKGLEWIGEINHVGSSRYNPSLGSRVTMSVDTSKSQFSLTLTAVTAADTAIYYCTRGRKTRRVKFFSRYSRDWFDPWGQGSRVTVSS
VL: VMTQSPATLSVSPGERATLSCRASQSVSSNLAWYQQKPGQAPRLLIYGASSRATGIPDRFSGSGSGTDFTLTISRLEPEDFATYYCQQLNSYPFTFGPGTKVDIK
notes: also called rx7; C6
binding result [1]: no binding (tested: 1:25 phage supernatant)
binding result [2]: binds
binding result [3]: binds

B5: Clone 12 human scFv (phage displayed) (scFv, V domains shown)
VH: QVQLQQWGGGLVKPSETLSLTCGVSGGSFNDYYWTWIRQPQGKGLEWIGEINHVGSSRYNPSLGSRVTMSVDTSKSQFSLTLTAVTAADTAIYYCTRGRKTRRVKFFSRYSRDWFDPWGQGSRVTVSS
VL: MTQSPSSLSASVGDRVTITCRASQGISNYLAWYQQKPGKVPKLLIYAASTLQSGVPSRFSGSGSGTDFTLTISSLQPEDVATYYCQKYNSAPFTFGPGTKVDIK
notes: also called rx8; H11
binding result [1]: no binding (tested: 1:25 phage supernatant)
binding result [2]: binds
binding result [3]: binds
